Assay results reported in US20240092909A1 (IBIO, published 2024).

How the values were obtained:
[1] = target: T1, Programmed cell death protein 1 (PD-1), human (human, UniProt Q15116 25-167, limits assumed); test: SPR avidity, column 'Avidity (nM)' of the drawn table
T1 construct: also called full-length PD-1

[2] = target: T1, Programmed cell death protein 1 (PD-1), …; test: cell-based or functional assay
[3] = target: T1, Programmed cell death protein 1 (PD-1), …; test: SPR affinity measurement, response in nm, four traces
[4] = target: T1, Programmed cell death protein 1 (PD-1), …; test: SPR avidity measurement (mimic cell surface PD-1 clusters), response in nm, three traces
[5] = target: T1, Programmed cell death protein 1 (PD-1), …; test: SPR affinity, column 'Affinity (nM)' of the drawn table
[6] = target: T1, Programmed cell death protein 1 (PD-1), …; test: SPR on PD-1, sensorgrams at three concentrations with fit
[7] = target: T1, Programmed cell death protein 1 (PD-1), …; test: SPR on PD-1, sensorgrams at five concentrations with fit
[8] = target: T1, Programmed cell death protein 1 (PD-1), …; test: SPR, PD-1 binding (FIG. 2B); SPR affinity format, FIG. 2B
[9] = target: T1, Programmed cell death protein 1 (PD-1), …; test: SPR, PD-1 avidity (FIG. 2C); SPR avidity format, FIG. 2C

T1 sequence (Q15116 25-167 limits assumed): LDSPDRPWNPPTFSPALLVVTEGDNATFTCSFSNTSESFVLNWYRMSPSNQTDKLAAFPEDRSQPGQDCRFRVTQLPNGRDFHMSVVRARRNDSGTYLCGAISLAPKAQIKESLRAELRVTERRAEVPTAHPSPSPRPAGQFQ

Binder | Kd [1] [nM] | PD-1 agonism EC50, PathHunter Checkpoint Signaling Assay [2] [nM] | Kd [3] [nM] | Kd [4] [nM] | Kd [5] [nM] | Kd [7] [nM] | also measured
1-C09-3 (antibody, V domains shown, From the in vitro scFv library of immunised mice) VH: QVQLQQPGAELVRPGTSVKLSCKASGYTFTSYWMHWVKERPGQGLEWIGVIDPSDSYTNYNQKFKDKATLTVDTSSSTAYMQLSSLTSEDSAVYYCARSPFDYWGQGTTLTVSS VL: DIQMTQSQKFMSTSVGDRVSVTCKASQNVGTNVAWYQQKPGQSPKALIYSASYRYSGVPDRFIGSGSGTDFTLTIRNVQSEDLAEYFCQQHNSYPFTFGGGTKLEIK | 0.77 | 1.1 | 84 | 0.77 | 84 | – | –
1-C09-1 (antibody, V domains shown, From the in vitro scFv library of immunised mice) VH: QVQLQQPGTELVRPGTSVKMSCKASGYTFTSYWMHWVKQRPGQGLEWIGVIDPSDSYTQYNQKFKGKATLTVDTSSSTAYMQLSSLTSEDSAVYYCARSPFDYWGQGTTLTVSS VL: DIVMTQSQKFMSTSVGDRVSVTCKASQNVGTNVAWYQQKPGQSPKALIYSASYRYSGIPDRFTGSGSGTDFTLTISNVQSEDLADFFCQQYNSYPFTFGGGTKLEIK | 3.7 | 1.4 | 150 | 3.7 | 150 | – | –
1-H01-1 (antibody, V domains shown, From the in vitro scFv library of immunised mice; also called clone 1-H01-1) VH: QVQLQQPGAELVKPGASVKMSCKASGYTFTSYWMHWVKQRPGQGLEWIGVIDPSNSYTIYNQKFKGKATLTVDTSSSTAYMQLSSLTSEDSAVYYCARSPFDYWGQGTTLTVSS VL: DVVMTQSQKFMSTSVGDRVSVTCKASQNVGTNVAWYQQKPGQSPKALIYSASYRYSGVPDRFTGSGSGTDFTLTIRNVQSEDLAEYFCQQHNSYPFTFGGGTKLEIK | 0.44 | 0.9 | 78 | 0.44 | 78 | – | –
2-D11-1 (antibody, V domains shown, From the in vitro scFv library of immunised mice) VH: EVQLQQPGAELVRPGTSVKLACKASGYTFNTYWMHWVNQRPGQGLEWIGVIDPSDSYTQYNQKFKGKATLTVDTSSSTAYMQLSSLTSEDSAVYYCARSPFDYWGQGTTLTVSS VL: DVQMTQSQKFMSTSVGDRVSVTCKASQNVGTNVAWYQQKPGQSPKALIYSASYRYSGVPDRFIGSGSGTDFTLTISNVQSEDLAEYFCQQHNSYPFTFGGGTKLEIK | 0.96 | 1.2 | 15 | 0.96 | 15 | – | –
1-F09-1 (antibody, V domains shown, From the in vitro scFv library of immunised mice) VH: QVQLQQPGAEVVMPGASVKLSCKASGYTFTSYWMHWVKQRPGQGLEWIGVIDPSDSYTQYNQKFKGKATLTVDTSSSTAYMQLSSLTSEDSAVYYCARSPFDYWGQGTTLTVSS VL: DIQMNQSHKFMSTSVGDRVSITCKASQDVSTAVAWYQQKPGQSPKALIYSASNRYSGVPDRFIGSGSGTDFTLTIRNVQSEDLAEYFCQQHNSYPFTFGGGTKLEMK | 0.46 | 1.1 | 13 | 0.46 | 13 | – | –
1-F12-1 (antibody, V domains shown, From the in vitro scFv library of immunised mice) VH: EVQLQQPGAELVRPGTSVKLSCKASGYTFTSYWMHWVKQRPGQGLEWIGVIDPSDSYTQYNQKFKGKATLTVDTSSSTAYMQLSSLTSEDSAVYYCARSPFDYWGQGTTVTVSS VL: DIVMTQSHKFMSTSVGDRVSITCKASQDVSTAVAWYQQKPGQSPKALIYSASYRYSGVPDRFTGSGSGTDFTLTISNVQAEDLAVYYCHQHNTYPFTFGGGTKLEIK | 0.98 | 1.6 | 21 | 0.98 | 21 | – | –
7 (antibody, V domains shown, From phage panning of a naive antibody library; also called antibody 7; clone 7) VH: EVQLLESGGGLVQPGGSLRLSCAASGFPFGNYLMNWVRQAPGKGLEWVSVISGGGVSTYYADSVKGRFTISRDNSKNTLYLQMNSLRAEDTAVYYCARGPSSWPAFDVWGQGTLVTVSS VL: DIQMTQSPSSLSASVGDRVTITCRASETISNFLNWYQQKPGKAPKLLIYTTSSLQRGVPSRFSGSGSGTDFTLTISSLQPEDFATYYCQQSYSVPWTFGGGTKVEIK | – | – | – | – | – | – | Kd [6]: 16 nM
43 (antibody, V domains shown, From phage panning of a naive antibody library; also called antibody 43; clone 43) VH: EVQLLESGGGLVQPGGSLRLSCAASGFTFSIHPMTWVRQAPGKGLEWVSLISTGGGSTYYADSVKGRFTISRDNSKNTLYLQMNSLRAEDTAVYYCASASVLGSGGYWSPGMDYWGQGTLVTVSS VL: DIQMTQSPSSLSASVGDRVTITCRASQSIDRFLNWYQQKPGKAPKLLIYGASNLPSGVPSRFSGSGSGTDFTLTISSLQPEDFATYYCQQSFSIPWTFGGGTKVEIK | – | – | – | – | – | – | Kd [6]: 6.3 nM
E2-B5-7_201 (antibody, V domains shown) VH: EVQLVQSGAEVKKPGATVKISCKASGYSLSDHYMHWVQQAPGKGLEWMGRIDPHSGATKYDPKFQGRVTITADTSTDTAYMELSSLRSEDTAVYYCARSGPVYHYGSSYVMDYWGQGTTVTVSS VL: DIVMTQSPDSLAVSLGERATINCKSGQSVFYSSNNKNYLAWYQQKPGQPPKLLIYWASTRESGVPDRFSGSGSGTDFTLTISSLQAEDVAVYYCQQYLYSWTFGQGTKLEIK | – | – | – | – | – | 1.2 | –
D4-A7-7_201 (antibody, V domains shown, also called clone D4-A7-7_201) VH: EVQLVQSGAEVKKPGATVKISCKASGYILTDHYMHWVQQAPGKGLEWMGRIDPHSGGIKYDPKFQGRVTITADTSTDTAYMELSSLRSEDTAVYYCARSGPVYHYGSSYVMDYWGQGTTVTVSS VL: DIVMTQSPDSLAVSLGERATINCKSGQSVFYSSNNKNYLAWYQQKPGQPPKLLIYWASTRESGVPDRFSGSGSGTDFTLTISSLQAEDVAVYYCQQYLYSWTFGQGTKLEIK | – | – | – | – | – | 1.1 | –
E2-B5-6_201 (antibody, V domains shown) VH: EVQLVQSGAEVKKPGATVKISCKASGYSLSDHYMHWVQQAPGKGLEWMGRIDPHSGATKYDPKFQGRVTITADTSTDTAYMELSSLRSEDTAVYYCARSGPVHYYGSSYVMDYWGQGTTVTVSS VL: DIVMTQSPDSLAVSLGERATINCKSGQSVFYSSNNKNYLAWYQQKPGQPPKLLIYWASTRESGVPDRFSGSGSGTDFTLTISSLQAEDVAVYYCQQYLYSWTFGQGTKLEIK | – | – | – | – | – | 0.71 | –
E2-B5-7_211 (antibody, V domains shown) VH: EVQLVQSGAEVKKPGATVKISCKASGYSLSDHYMHWVQQAPGKGLEWMGRIDPHSGATKYDPKFQGRVTITADTSTDTAYMELSSLRSEDTAVYYCARSGPVYHYGSSYVMDYWGQGTTVTVSS VL: DIVMTQSPDSLAVSLGERATINCKSGQSVFYSSNNKNYLAWYQQKPGQPPKLLIYWADTRESGVPDRFSGSGSGTDFTLTISSLQAEDVAVYYCQQYLYSWTFGQGTKLEIK | – | – | – | – | – | 0.695 | –
27A5 (antibody, V domains shown, Antibody from a monoclonal hybridoma of immunised BALB/c mice) VH: QVTLKESGPGILQPSQTLSLTCSFSGFSLSTFGMGVGWIRQPSGKGLEWLAHIWWDADKYSTPALKSRLTISKDTSKNQVFLKIANVDTADTATYYCARIGRNYYFDYWGQGTTLTVSS VL: DIVMTQSPSSLAVSVGEKVTLTCKSSQTLLDSTNQKNYLAWYQQIPGQSPKLLIYWASTRESGVPDRFTGSGSGTDFTLTISSVKAEDLTVYYCQQYYTYPLTFGAGTKLELK | – | – | – | – | – | – | Kd [8]: 55 nM; Kd [9]: 0.005 nM
